# Publication doi:10.1101/2021.02.17.431743 (bioRxiv, 2021)
# “And” between values parts separate entries of the source, which are not always exact repeats. Identical values can stand only once.
# B1: HeV-RBP full ectodomain (head domain with intact stalk domain), dimeric fraction after gradient fixation (domain or fragment)
# chain: QNYTRTTDNQALIKESLQSVQQQIKALTDKIGTEIGPKVSLIDTSSTITIPANIGLLGSKISQSTSSINENVNDKCKFTLPPLKIHECNISCPNPLPFREYRPISQGVSDLVGLPNQICLQKTTSTILKPRLISYTLPINTREGVCITDPLLAVDNGFFAYSHLEKIGSCTRGIAKQRIIGVGEVLDRGDKVPSMFMTNVWTPPNPSTIHHCSSTYHEDFYYTLCAVSHVGDPILNSTSWTESLSLIRLAVRPKSDSGDYNQKYIAITKVERGKYDKVMPYGPSGIKQGDTLYFPAVGFLPRTEFQYNDSNCPIIHCKYSKAENCRLSMGVNSKSHYILRSGLLKYNLSLGGDIILQFIEIADNRLTIGSPSKIYNSLGQPVFYQASYSWDTMIKLGDVDTVDPLRVQWRNNSVISRPGQSQCPRFNVCPEVCWEGTYNDAFLIDRLNWVSAGVYLNSNQTAENPVFAVFKDNEILYQVPLAEDDTNAQKTITDCFLLENVIWCISLVEIYDTGDSVIRPKLFAVKIPAQCSES
# Molecular target: the molecule itself
# Test: gradient fixation ultracentrifugation
protein,measurement,value
B1,stoichiometry N,2 and 4
